Measurements from paper PMC12292289, “Identification of a Novel Antibacterial Function of Mammalian Calreticulin” (Biomolecules, 2025).
Blank lines part the entries; values can stand above or below the molecule they belong to.

How the values were obtained:
[1] = target: recombinant goat calreticulin (Capra hircus (goat)); experiment: SEC; SEC-HPLC of the purified recombinant protein; retention time compared with that of standards (Figure S1)
[2] = target: the molecule itself; experiment: as above

stoichiometry N [1]: 2
Molecule: recombinant goat calreticulin (natural protein)

B1: recombinant human calreticulin (natural protein, UniProt P27797 18-417, looked up)
chain: EPAVYFKEQFLDGDGWTSRWIESKHKSDFGKFVLSSGKFYGDEEKDKGLQTSQDARFYALSASFEPFSNKGQTLVVQFTVKHEQNIDCGGGYVKLFPNSLDQTDMHGDSEYNIMFGPDICGPGTKKVHVIFNYKGKNVLINKDIRCKDDEFTHLYTLIVRPDNTYEVKIDNSQVESGSLEDDWDFLPPKKIKDPDASKPEDWDERAKIDDPTDSKPEDWDKPEHIPDPDAKKPEDWDEEMDGEWEPPVIQNPEYKGEWKPRQIDNPDYKGTWIHPEIDNPEYSPDPSIYAYDNFGVLGLDLWQVKSGTIFDNFLITNDEAYAEEFGNETWGVTKAAEKQMKDKQDEEQRLKEEEEDKKRKEEEEAEDKEDDEDKDEDEEDEEDKEEDEEEDVPGQAKDEL
notes: calreticulin, human; bought recombinant protein (Sino Biological, P27797); P27797 is printed where the reagent list gives catalogue numbers; also called recombinant human calreticulin expressed in HEK293 cells; source: bought: Sino Biological; expressed in HEK293 cells
stoichiometry N [2]: 2
